Earlier results on 1 substance are cited in paper PMC3121883.

Where two headings read alike, the source gives them in different places.

For data set [1], the target named is Connexin43 C-terminal peptide (UniProt P17302). Nature of the data set: fluorescence.
Data set [2] shares this target. Nature of the data set: fluorescence. This is another data set of the same source.

Chain of UniProt P17302 (P17302 whole entry, looked up, tested part not stated): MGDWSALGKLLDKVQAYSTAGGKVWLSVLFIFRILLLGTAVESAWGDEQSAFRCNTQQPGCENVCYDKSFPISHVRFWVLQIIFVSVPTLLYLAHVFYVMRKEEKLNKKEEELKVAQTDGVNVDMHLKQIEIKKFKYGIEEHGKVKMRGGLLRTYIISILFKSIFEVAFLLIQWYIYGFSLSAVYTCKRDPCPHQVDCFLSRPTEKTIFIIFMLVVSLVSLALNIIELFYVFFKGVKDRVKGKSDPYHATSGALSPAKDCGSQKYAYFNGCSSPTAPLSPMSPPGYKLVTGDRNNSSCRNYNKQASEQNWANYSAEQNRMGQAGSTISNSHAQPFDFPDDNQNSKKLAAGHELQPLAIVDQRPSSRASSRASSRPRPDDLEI

Consider ZO-1 PDZ2 (from UniProt Q07157), for which the equilibrium dissociation constant (Kd) (as a rule, the equilibrium constant for the complex coming apart) is 7.2 µM in data set [1] and greater than 100 µM in data set [2].
